Data: US20210032351A1 (XDCEXPLORER SHANGHAI, published 2021)
Positions count from the first letter of the chain named.

B1: Humanized antibody h75G7C6-10 (antibody, human IgG1, V domains shown)
VH: QVQLVQSGAEVKKPGASVKVSCKASGYTFTDYNMDWVRQAPGQGLEWIGDINPNNADTIYNQKFKGRVTLTVDTSTSTVYMELSSLRSEDTAVYYCARGDYDGYYPVYYAMDYWGQGTTVTVSS
VL: ENVLTQSPATLSLSPGERATLSCRASSSVSSSYLHWYQQKPGQAPRLLIFSTSNLAAGIPARFSGSGSGTDYTLTISSLEPEDFAVYYCQQYSGYPLTFGGGTKVEIK
notes: also called VH-g1/VL-g1
B2: Humanized antibody h75G7C6-11 (antibody, human IgG1, V domains shown)
VH: B1 VH
VL: B1 VL with A44S
notes: also called VH-g1/VL-g2
B3: Humanized antibody h75G7C6-12 (antibody, human IgG1, V domains shown)
VH: B1 VH
VL: B1 VL with A44S, I59V
notes: also called VH-g1/VL-g3
B4: Humanized antibody h63A10A7-39 (antibody, human IgG1, V domains shown)
VH: QVQLVQSGAEVKKPGASVKVSCKASGYTFISFTMHWVKQRPGQGLEWIGYINPNSGYTKYNQKFKDRVTLTRDTSTSTVYMELSSLRSEDTAVYYCTRGGGRGFAYWGQGTLVTVSS
VL: DIQMTQSPSSLSASVGDRVTITCHASQDINSNIGWLQQKPGKSFKALIYHGTNLEDGVPSRFSGSGSGADYTLTISSLQPEDFATYYCVQYAQFPFTFGQGTKLEIK
notes: also called VH-g8/VL-g3
B5: Humanized antibody h63A10A7-26 (antibody, human IgG1, V domains shown)
VH: B4 VH with R67K, V68A
VL: B4 VL with Q3L, L36Y, Y71F
notes: also called VH-g4/VL-g8
B6: Humanized antibody h63A10A7-20 (antibody, human IgG1, V domains shown)
VH: B4 VH with K38R, R40A, R67K, V68A
VL: B4 VL with Q3L
notes: also called VH-g7/VL-g4
B7: Humanized antibody h63A10A7-21 (antibody, human IgG1, V domains shown)
VH: B4 VH
VL: B4 VL with Q3L
notes: also called VH-g8/VL-g4
B8: Humanized antibody h63A10A7-22 (antibody, human IgG1, V domains shown)
VH: B4 VH with R67K, V68A
VL: B4 VL
notes: also called VH-g4/VL-g3
B9: Humanized antibody h63A10A7-25 (antibody, human IgG1, V domains shown)
VH: B4 VH with R67K, V68A
VL: B4 VL with Q3L, L36Y
notes: also called VH-g4/VL-g7
B10: Humanized antibody h63A10A7-19 (antibody, human IgG1, V domains shown)
VH: B4 VH with I48M, R67K, V68A, L70M
VL: B4 VL with Q3L
notes: also called VH-g6/VL-g4
B11: Humanized antibody h63A10A7-24 (antibody, human IgG1, V domains shown)
VH: B4 VH with R67K, V68A
VL: B4 VL with Q3L, A69T
notes: also called VH-g4/VL-g6
B12: Humanized antibody h63A10A7-23 (antibody, human IgG1, V domains shown)
VH: B4 VH with R67K, V68A
VL: B4 VL with Q3L, S43A, F44P
notes: also called VH-g4/VL-g5
B13: Humanized antibody h63A10A7-38 (antibody, human IgG1, V domains shown)
VH: B4 VH with K38R, R40A, R67K, V68A
VL: B4 VL
notes: also called VH-g7/VL-g3
B14: Humanized antibody h63A10A7-37 (antibody, human IgG1, V domains shown)
VH: B4 VH with I48M, R67K, V68A, L70M
VL: B4 VL
notes: also called VH-g6/VL-g3
B15: Humanized antibody h75G7C6-3 (antibody, human IgG1, V domains shown)
VH: B1 VH with Q1E, R38K, T74K
VL: B1 VL with A44S
B16: Humanized antibody h75G7C6-4 (antibody, human IgG1, V domains shown)
VH: B1 VH with Q1E, R38K, T74K
VL: B1 VL with A44S, I59V
B17: Humanized antibody h75G7C6-8 (antibody, human IgG1, V domains shown)
VH: B1 VH with I48M, L70M, V72R
VL: B1 VL with A44S, I59V
B18: Humanized antibody h75G7C6-7 (antibody, human IgG1, V domains shown)
VH: B1 VH with I48M, L70M, V72R
VL: B1 VL with A44S
B19: Humanized antibody h75G7C6-6 (antibody, human IgG1, V domains shown)
VH: B1 VH with I48M, L70M, V72R
VL: B1 VL
B20: Humanized antibody h63A10A7-17 (antibody, human IgG1, V domains shown)
VH: B4 VH with R67K, V68A
VL: B4 VL with Q3L
notes: also called VH-g4/VL-g4
B21: Humanized antibody h63A10A7-18 (antibody, human IgG1, V domains shown)
VH: B4 VH with R67K, V68A, R72A, T74Q, V79A
VL: B4 VL with Q3L
notes: also called VH-g5/VL-g4

target: T1, human EGFRvIII protein on the cell surface (human, UniProt P00533 25-1210); experiment: FACS on U87MG-EGFRvIII cells
T1 construct: whole, on cells; the cell line is named under assay; also called hEGFRvIII; U87MG-hEGFRvIII
Protocol: The preparation of U87MG-EGFRvIII required for FACS detection is as described in the preparation of the immunogen B in example 1. Normal human primary hepatocytes are purchased from BioreclamationIVT, and A431 tumor cells are purchased from ATCC. The recovered hepatocytes are directly used for FACS detection, and the recovered U87MG-EGFRvIII and A431 cells are subjected to an expanded culture to 90% confluence in a T-75 cell culture flask; the medium is sucked out, and the cells are washed twice with a HBSS buffer (Hanks Balanced Salt Solution) (purchased from Invitrogen), and then treated with an enzyme-free cell dissociation solution (Versene solution: purchased from Life Technology) and collected. The cells are washed twice with the HBSS buffer and are counted, and then the cells are diluted with the HBSS buffer to 2×10⁶ cells/ml, added with 1% goat serum blocking solution, with the percentage being the mass percentage, and incubated on ice for 30 minutes, and then centrifugally washed twice with the HBSS buffer. The collected cells are resuspended to 2×10⁶ cells/mL with an FACS buffer (HBSS+2% FBS, with the percentage being the volume percentage), added to a 96-well FACS reaction plate at 100 μL/well, then added with 100 μL/well of the purified EGFRvIII antibody (samples to be tested) obtained in example 12, and incubated on ice for 2 hours. The plate is centrifugally washed twice with the FACS buffer, added with 100 μL/well of a 1:1000 diluted fluorescence (Alexa 488) labeled secondary antibody (purchased from Invitrogen), and incubated on ice for 1 hour. The plate is centrifugally washed 3 times with the FACS buffer, added with 100 μL/well of a fixing solution [4% (v/v) paraformaldehyde] to resuspend the cells, and centrifugally washed twice with the FACS buffer after 10 minutes. The cells are resuspended in 100 μL of the FACS buffer, and the results are detected and analyzed by FACS (FACS Calibur, purchased from BD). Data analysis is performed by using the software (CellQuest) to obtain the mean fluorescence intensity (MFI) of the cells. Data is further analyzed by using the software (GraphPad Prism5) to perform data fitting and calculate EC50.

| Binder | EC50 [nM] | Maximum mean fluorescence intensity [MFI] |
| --- | --- | --- |
| B1 | 5.32 | 18000 |
| B2 | 5.11 | 17600 |
| B3 | 5.2 | 17800 |
| B4 | 4.1 | 10700 |
| B5 | 1.79 | 23700 |
| B6 | 1.56 | 22600 |
| B7 | 2.34 | 23500 |
| B8 | 1.58 | 23500 |
| B9 | 1.32 | 24700 |
| B10 | 3.27 | 21100 |
| B11 | 1.83 | 24200 |
| B12 | 4.62 | 20200 |
| B13 | 3.03 | 10700 |
| B14 | 5.35 | 10200 |

target: human EGFRvIII-hFc protein (human) (UniProt P00533); experiment: ELISA, EGFRvIII-hFc coated

| Binder | EC50 [nM] | Maximum OD450 value [OD450] |
| --- | --- | --- |
| B15 | 0.51 | 3.44 |
| B16 | 0.45 | 3.37 |
| B17 | 2 | 2.72 |
| B18 | 1.1 | 2.97 |
| B19 | 0.68 | 3.2 |

target: T2, human EGFRvIII-hFc protein (human, UniProt P00533 25-645); experiment: ELISA, EGFRvIII-hFc coated
T2 construct: extracellular domain; also called immunogen A; hFc-tagged EGFRvIII protein; not shown: human IgG Fc fragment (hFc) of the pCpC vector
Protocol: The purified humanized anti-EGFRvIII antibody obtained in example 12 is reacted with a human EGFRvIII-hFc protein.
The purified immunogen A (EGFRvIII-hFc) obtained in example 1 (for the preparation method, see step (I) in example 1) is diluted with PBS to a final concentration of 1.0 μg/mL, and then added to a 96-well ELISA plate at 100 μl/well. The plate is sealed with a plastic film and incubated at 4° C. overnight. The next day, the plate is washed twice with a plate washing solution [PBS+0.01% (v/v) Tween20], and added with a blocking solution [PBS+0.01% (v/v) Tween20+1% (w/w) BSA] for blocking 2 hours at room temperature. […] The plate is incubated for 2 hours at 37° C., and then washed 3 times with the plate washing solution [PBS+0.01% (v/v) Tween20]. The plate is added with an HRP (horseradish peroxidase) labeled secondary antibody (purchased from Sigma), incubated at 37° C. for 2 hours, and then washed 3 times with the plate washing solution [PBS+0.01% (v/v) Tween20]. The plate is added with 100 μl of TMB substrate/well, incubated for 30 minutes at room temperature, and then added with 100 μl of stopping solution (1.0N HCl)/well. A450 nm value is read using an ELISA plate reader (SpectraMax 384plus, purchased from Molecular Device).

| Binder | EC50 [nM] | Maximum OD450 value [OD450] |
| --- | --- | --- |
| B1 | 0.66 | 2.98 |
| B2 | 0.67 | 2.96 |
| B3 | 0.57 | 2.73 |
| B20 | 0.01 | 3.71 |
| B4 | 0.24 | 3.6 |
| B5 | 0.16 | 3.65 |
| B6 | 0.18 | 3.55 |
| B7 | 0.17 | 3.6 |
| B21 | 0.01 | 3.71 |
| B8 | 0.15 | 3.57 |
| B9 | 0.17 | 3.61 |
| B10 | 0.17 | 3.63 |
| B11 | 0.15 | 3.67 |
| B12 | 0.33 | 3.47 |
| B13 | 0.22 | 3.7 |
| B14 | 0.28 | 3.6 |

target: human EGFRvIII protein on the cell surface (human) (UniProt P00533); experiment: FACS on U87MG-EGFRvIII cells

| Binder | EC50 [nM] | Maximum mean fluorescence intensity [MFI] |
| --- | --- | --- |
| B15 | 5.6 | 18600 |
| B16 | 5.57 | 18700 |
| B17 | 11.6 | 17600 |
| B18 | 5.74 | 17200 |
| B19 | 5.96 | 17100 |
